Non-standard residues stand in square brackets, D forms with d. No end group written: not given here. βAla = NCCC(=O)O
Target: T1, AdipoR1 (UniProt Q96A54 1-375, limits assumed)
T1 sequence (looked up): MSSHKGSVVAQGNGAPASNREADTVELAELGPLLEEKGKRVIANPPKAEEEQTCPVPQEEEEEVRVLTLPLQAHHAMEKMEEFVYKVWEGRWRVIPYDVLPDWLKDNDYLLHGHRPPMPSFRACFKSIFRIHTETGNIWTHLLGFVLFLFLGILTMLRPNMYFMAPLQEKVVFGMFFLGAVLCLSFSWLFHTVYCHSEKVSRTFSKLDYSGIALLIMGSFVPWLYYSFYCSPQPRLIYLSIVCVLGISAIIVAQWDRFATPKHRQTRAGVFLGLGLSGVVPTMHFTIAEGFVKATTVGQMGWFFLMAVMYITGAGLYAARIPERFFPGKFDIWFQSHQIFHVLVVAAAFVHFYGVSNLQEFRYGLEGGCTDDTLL
Experiment: cell-based or functional assay

Row | Molecule | MCF-7 cell growth restriction at 50 ng/mL | MCF-7 cell proliferation inhibition at 50 ng/mL relative to untreated controls
1 | globular adiponectin (gAd) (from UniProt Q15848 108-244) (ligand) | 18% | –
2 | NIPGLYYFAY[βAla]-NH2 (N-terminus assumed; SMILES CC[C@H](C)[C@H](NC(=O)[C@@H](N)CC(N)=O)C(=O)N1CCC[C@H]1C(=O)NCC(=O)N[C@@H](CC(C)C)C(=O)N[C@@H](Cc1ccc(O)cc1)C(=O)N[C@@H](Cc1ccc(O)cc1)C(=O)N[C@@H](Cc1ccccc1)C(=O)N[C@@H](C)C(=O)N[C@@H](Cc1ccc(O)cc1)C(=O)NCCC(N)=O) [ADP 25-β-AlaNH2] | – | 20%

— patent US20140057833A1 (TEMPLE UNIVERSITY OF THE COMMONWEALTH SYSTEM OF HIGHER …, published 2014)
